From paper PMC5655499, “Peptide array-based screening reveals a large number of proteins interacting with the ankyrin-repeat domain of the zDHHC17 S-acyltransferase” (The Journal of Biological Chemistry, 2017)

B1: SNAP25 15-mer peptide (wild type) containing the zDABM [not stated] / His6-tagged AR domain (residues 51–288) of zDHHC17 [human] (parent)
chain 1: THIDDYSTWDIVKATQYGIYERCRELVEAGYDVRQPDKENVTLLHWAAINNRIDLVKYYISKGAIVDQLGGDLNSTPLHWATRQGHLSMVVQLMKYGADPSLIDGEGCSCIHLAAQFGHTSIVAYLIAKGQDVDMMDQNGMTPLMWAAYRTHSVDPTRLLLTFNVSVNLGDKYHKNTALHWAVLAGNTTVISLLLEAGANVDAQNIKGESALDLAKQRKNVWMINHLQEARQAKGYDN
chain 2: QDGVVASQPARVVDE
B2: CSPα 15-mer peptide (wild type) containing the zDABM [not stated] / His6-tagged AR domain (residues 51–288) of zDHHC17 [human] (parent)
chain 1: B1 chain 1
chain 2: TDTPIVIQPASATET

Variants of: B1
Experiment: far-Western blotting on peptide array
Conditions: with His6-tagged AR domain (residues 51–288) of zDHHC17 [human]; ARzD17-His 500 nm in PBS-T, overnight, 4 °C
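Further: PSSM score: binding signal versus wild type scaled to sum 1 per position.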

Screen value, < 0.005:
chain 2 QDGVVASQPAEVVDE [chain 2 R11E]
chain 2 QDGVVASQPALVVDE [chain 2 R11L]
chain 2 QDGVVASQPAYVVDE [chain 2 R11Y]
chain 2 QDGVVASQPATVVDE [chain 2 R11T]
chain 2 QDGVVASQPAQVVDE [chain 2 R11Q]
chain 2 QDGVVASQPADVVDE [chain 2 R11D]
chain 2 QDGVVASQPAIVVDE [chain 2 R11I]
chain 2 QDGVVASQPAVVVDE [chain 2 R11V]
chain 2 QDGVVASQPANVVDE [chain 2 R11N]
chain 2 QDGVVASQPAFVVDE [chain 2 R11F]
chain 2 QDGVVASQPAMVVDE [chain 2 R11M]
chain 2 QDGVVASQPARDVDE [chain 2 V12D]
chain 2 QDGVVASQPAREVDE [chain 2 V12E]
chain 2 QDGVVAPQPARVVDE [chain 2 S7P]
chain 2 QDGVVAGQPARVVDE [chain 2 S7G]
chain 2 QDGVVASHPARVVDE [chain 2 Q8H]
chain 2 QDGVVASPPARVVDE [chain 2 Q8P]
chain 2 QDGVVASGPARVVDE [chain 2 Q8G]
chain 2 QDGVVASTPARVVDE [chain 2 Q8T]
chain 2 QDGVVASWPARVVDE [chain 2 Q8W]
chain 2 QDGVVASSPARVVDE [chain 2 Q8S]
chain 2 QDGVVASFPARVVDE [chain 2 Q8F]
chain 2 QDGVVASDPARVVDE [chain 2 Q8D]
chain 2 QDGVVASVPARVVDE [chain 2 Q8V]
chain 2 QDGVVASAPARVVDE [chain 2 Q8A]
chain 2 QDGVVASNPARVVDE [chain 2 Q8N]
chain 2 QDGVVASYPARVVDE [chain 2 Q8Y]
chain 2 QDGVVASIPARVVDE [chain 2 Q8I]
chain 2 QDGVVASEPARVVDE [chain 2 Q8E]
chain 2 QDGTVASQPARVVDE [chain 2 V4T]
chain 2 QDGEVASQPARVVDE [chain 2 V4E]
chain 2 QDGAVASQPARVVDE [chain 2 V4A]
chain 2 QDGHVASQPARVVDE [chain 2 V4H]
chain 2 QDGRVASQPARVVDE [chain 2 V4R]
chain 2 QDGNVASQPARVVDE [chain 2 V4N]
chain 2 QDGDVASQPARVVDE [chain 2 V4D]
chain 2 QDGFVASQPARVVDE [chain 2 V4F]
chain 2 QDGLVASQPARVVDE [chain 2 V4L]
chain 2 QDGSVASQPARVVDE [chain 2 V4S]
chain 2 QDGKVASQPARVVDE [chain 2 V4K]
chain 2 QDGWVASQPARVVDE [chain 2 V4W]
chain 2 QDGQVASQPARVVDE [chain 2 V4Q]
chain 2 QDGYVASQPARVVDE [chain 2 V4Y]
chain 2 QDGGVASQPARVVDE [chain 2 V4G]
chain 2 QDGMVASQPARVVDE [chain 2 V4M]
chain 2 QDGVVASQDARVVDE [chain 2 P9D]
chain 2 QDGVVASQKARVVDE [chain 2 P9K]
chain 2 QDGVVASQTARVVDE [chain 2 P9T]
chain 2 QDGVVASQWARVVDE [chain 2 P9W]
chain 2 QDGVVASQNARVVDE [chain 2 P9N]
chain 2 QDGVVASQEARVVDE [chain 2 P9E]
chain 2 QDGVVASQLARVVDE [chain 2 P9L]
chain 2 QDGVVASQHARVVDE [chain 2 P9H]
chain 2 QDGVVASQSARVVDE [chain 2 P9S]
chain 2 QDGVVASQFARVVDE [chain 2 P9F]
chain 2 QDGVVASQYARVVDE [chain 2 P9Y]
chain 2 QDGVVASQGARVVDE [chain 2 P9G]
chain 2 QDGVVASQAARVVDE [chain 2 P9A]
chain 2 QDGVVASQCARVVDE [chain 2 P9C]
chain 2 QDGVVASQVARVVDE [chain 2 P9V]
chain 2 QDGVVASQRARVVDE [chain 2 P9R]
chain 2 QDGVVASQQARVVDE [chain 2 P9Q]
chain 2 QDGVVASQMARVVDE [chain 2 P9M]
chain 2 QDGVYASQPARVVDE [chain 2 V5Y]
chain 2 QDGVTASQPARVVDE [chain 2 V5T]
chain 2 QDGVKASQPARVVDE [chain 2 V5K]
chain 2 QDGVSASQPARVVDE [chain 2 V5S]
chain 2 QDGVMASQPARVVDE [chain 2 V5M]
chain 2 QDGVGASQPARVVDE [chain 2 V5G]
chain 2 QDGVDASQPARVVDE [chain 2 V5D]
chain 2 QDGVEASQPARVVDE [chain 2 V5E]
chain 2 QDGVWASQPARVVDE [chain 2 V5W]
chain 2 QDGVHASQPARVVDE [chain 2 V5H]
chain 2 QDGVPASQPARVVDE [chain 2 V5P]
chain 2 QDGVLASQPARVVDE [chain 2 V5L]
chain 2 QDGVNASQPARVVDE [chain 2 V5N]
chain 2 QDGVAASQPARVVDE [chain 2 V5A]
chain 2 QDGVQASQPARVVDE [chain 2 V5Q]
chain 2 QDGVVASQPDRVVDE [chain 2 A10D]
chain 2 QDGVVGSQPARVVDE [chain 2 A6G]
chain 2 QDGVVPSQPARVVDE [chain 2 A6P]

Variants of: B2
Experiment: far-Western blotting on peptide array
Conditions: with His6-tagged AR domain (residues 51–288) of zDHHC17 [human]; ARzD17-His 500 nm in PBS-T, overnight, 4 °C

Screen value, < 0.005:
chain 2 TDTPIVIIPASATET [chain 2 Q8I]
chain 2 TDTPIVIWPASATET [chain 2 Q8W]
chain 2 TDTPIVIGPASATET [chain 2 Q8G]
chain 2 TDTPIVITPASATET [chain 2 Q8T]
chain 2 TDTPIVIFPASATET [chain 2 Q8F]
chain 2 TDTPIVIVPASATET [chain 2 Q8V]
chain 2 TDTPIVIYPASATET [chain 2 Q8Y]
chain 2 TDTPIVIAPASATET [chain 2 Q8A]
chain 2 TDTPIVILPASATET [chain 2 Q8L]
chain 2 TDTPIVIEPASATET [chain 2 Q8E]
chain 2 TDTPIVISPASATET [chain 2 Q8S]
chain 2 TDTPIVIDPASATET [chain 2 Q8D]
chain 2 TDTPIVIKPASATET [chain 2 Q8K]
chain 2 TDTPIVINPASATET [chain 2 Q8N]
chain 2 TDTPIVIRPASATET [chain 2 Q8R]
chain 2 TDTPIVIHPASATET [chain 2 Q8H]
chain 2 TDTPIVIPPASATET [chain 2 Q8P]
chain 2 TDTPIVIQPDSATET [chain 2 A10D]
chain 2 TDTPIVPQPASATET [chain 2 I7P]
chain 2 TDTPIVIQNASATET [chain 2 P9N]
chain 2 TDTPIVIQFASATET [chain 2 P9F]
chain 2 TDTPIVIQEASATET [chain 2 P9E]
chain 2 TDTPIVIQTASATET [chain 2 P9T]
chain 2 TDTPIVIQLASATET [chain 2 P9L]
chain 2 TDTPIVIQDASATET [chain 2 P9D]
chain 2 TDTPIVIQWASATET [chain 2 P9W]
chain 2 TDTPIVIQKASATET [chain 2 P9K]
chain 2 TDTPIVIQCASATET [chain 2 P9C]
chain 2 TDTPIVIQYASATET [chain 2 P9Y]
chain 2 TDTPIVIQRASATET [chain 2 P9R]
chain 2 TDTPIVIQVASATET [chain 2 P9V]
chain 2 TDTPIVIQGASATET [chain 2 P9G]
chain 2 TDTPIVIQIASATET [chain 2 P9I]
chain 2 TDTPIVIQAASATET [chain 2 P9A]
chain 2 TDTPIVIQHASATET [chain 2 P9H]
chain 2 TDTPIVIQQASATET [chain 2 P9Q]
chain 2 TDTPIVIQMASATET [chain 2 P9M]
chain 2 TDTPIVIQSASATET [chain 2 P9S]
chain 2 TDTPRVIQPASATET [chain 2 I5R]
chain 2 TDTPGVIQPASATET [chain 2 I5G]
chain 2 TDTPQVIQPASATET [chain 2 I5Q]
chain 2 TDTPTVIQPASATET [chain 2 I5T]
chain 2 TDTPAVIQPASATET [chain 2 I5A]
chain 2 TDTPPVIQPASATET [chain 2 I5P]
chain 2 TDTPKVIQPASATET [chain 2 I5K]
chain 2 TDTPMVIQPASATET [chain 2 I5M]
chain 2 TDTPNVIQPASATET [chain 2 I5N]
chain 2 TDTPYVIQPASATET [chain 2 I5Y]
chain 2 TDTPWVIQPASATET [chain 2 I5W]
chain 2 TDTPEVIQPASATET [chain 2 I5E]
chain 2 TDTPHVIQPASATET [chain 2 I5H]
chain 2 TDTPLVIQPASATET [chain 2 I5L]
chain 2 TDTPSVIQPASATET [chain 2 I5S]
chain 2 TDTPDVIQPASATET [chain 2 I5D]
chain 2 TDTPFVIQPASATET [chain 2 I5F]
chain 2 TDTPIPIQPASATET [chain 2 V6P]
chain 2 TDTPIAIQPASATET [chain 2 V6A]
chain 2 TDTPIGIQPASATET [chain 2 V6G]
chain 2 TDTPIDIQPASATET [chain 2 V6D]
chain 2 TDTPIVIQPAEATET [chain 2 S11E]
chain 2 TDTPIVIQPADATET [chain 2 S11D]
chain 2 TDTKIVIQPASATET [chain 2 P4K]
chain 2 TDTRIVIQPASATET [chain 2 P4R]
chain 2 TDTFIVIQPASATET [chain 2 P4F]
chain 2 TDTQIVIQPASATET [chain 2 P4Q]
chain 2 TDTSIVIQPASATET [chain 2 P4S]
chain 2 TDTNIVIQPASATET [chain 2 P4N]
chain 2 TDTLIVIQPASATET [chain 2 P4L]
chain 2 TDTMIVIQPASATET [chain 2 P4M]
chain 2 TDTDIVIQPASATET [chain 2 P4D]
chain 2 TDTYIVIQPASATET [chain 2 P4Y]
